Molecular target: streptavidin (UniProt P22629 25-183)
Test: capillary electrophoresis

Sequence of streptavidin (P22629 25-183): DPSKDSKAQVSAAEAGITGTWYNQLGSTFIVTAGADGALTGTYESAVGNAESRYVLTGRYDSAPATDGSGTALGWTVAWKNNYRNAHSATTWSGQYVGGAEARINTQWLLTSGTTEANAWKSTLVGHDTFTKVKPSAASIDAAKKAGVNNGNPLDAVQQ

Binder | binding signal
CTGTGAGACGACGCACCGGTCGCAGGTTTTGTCTCACAG (structured_DNA) [NRR] | 33 % bound
CTTGTGTTTGCTCCCCGACGCAGGGGACACAAG (structured_DNA) [S10-115 minimal] | 60 % bound
TAGGACAAACGCACACGGCGCAGTGTTTTGACCTA (structured_DNA) [S10-103 minimal] | 48 % bound
CACGTAACGCATACGCCGCAGTATTTATGTG (structured_DNA) [S10-101 minimal] | > 70 % bound
CATATTTAGCGCGTGTGTCGCAACACCTATATATG (structured_DNA) [S10-104 minimal] | 53 % bound
CAAACCTCGCGCCGATTGCAGGCAGGTTTG (structured_DNA) [S10-113 minimal] | 50 % bound

From paper PMC2898215
